# B1: PGT-131 (antibody, V domains shown)
# VH: QVQLQESGPGLVKPSETLSLTCTVSGDSINTGHHYWGWVRQVPGKGPEWIAHIHYNTAVLHNPALKSRVTISIFTLKNLITLSLSNVTAADTAVYFCVRSGGDILYYIEWQKPHWFYPWGPGILVTVSS
# VL: QSALTQPPSASGSLGQSLTISCSGTGSDIGSWNFVSWYQQFPGRAPNLIIFEVNRRRSGVPDRFSGSKSGNTASLTVSGLRSEDEAEYFCSSLSGRWDIVFGGGTKVTVL
# B2: PGT-130 (antibody, V domains shown)
# VH: QVQLQESGPGLVKPAETLSLTCSVSGESINTGHYYWGWVRQVPGKGLEWIGHIHYTTAVLHNPSLKSRLTIKIYTLRNQITLRLSNVTAADTAVYHCVRSGGDILYYYEWQKPHWFSPWGPGIHVTVSS
# VL: QSALTQPPSASGSLGQSVTISCNGTSSDIGGWNFVSWYQQFPGRAPRLIIFEVNKRPSGVPGRFSGSKSGNSASLTVSGLQSDDEGQYFCSSLFGRWDVVFGGGTKLTVL
# How the values were obtained:
# [1] = target: WT JR-FL gp120 (HIV-1 (isolate JR-FL)); experiment: ELISA on coated gp120; EC50 by nonlinear regression
# [2] = target: HIV-1 JR-CSF Env N276A (HIV-1 JR-CSF) (UniProt P20871); experiment: cell-based or functional assay
# [3] = target: HIV-1 JR-CSF Env T303A (HIV-1 JR-CSF) (UniProt P20871); experiment: cell-based or functional assay
# [4] = target: HIV-1 JR-CSF Env N332A (HIV-1 isolate JR-CSF) (UniProt P20871); experiment: cell-based or functional assay
# [5] = target: HIV-1 JR-CSF Env T202A (HIV-1 JR-CSF) (UniProt P20871); experiment: cell-based or functional assay
# [6] = target: HIV-1 JR-CSF Env E321aA (HIV-1 isolate JR-CSF) (UniProt P20871); experiment: cell-based or functional assay
# [7] = target: HIV-1 JR-CSF Env I424A (HIV-1 (isolate JR-CSF)) (UniProt P20871); experiment: cell-based or functional assay
# [8] = target: HIV-1 JR-CSF Env T341A (HIV-1 isolate JR-CSF) (UniProt P20871); experiment: cell-based or functional assay
# [9] = target: HIV-1 JR-CSF Env T394A (HIV-1 (isolate JR-CSF)) (UniProt P20871); experiment: cell-based or functional assay
# [10] = target: HIV-1 JR-CSF Env D325A (HIV-1 isolate JR-CSF) (UniProt P20871); experiment: cell-based or functional assay
# [11] = target: HIV-1 JR-CSF Env T388A (HIV-1 (isolate JR-CSF)) (UniProt P20871); experiment: cell-based or functional assay
# [12] = target: HIV-1 JR-CSF Env F317A (HIV-1 isolate JR-CSF) (UniProt P20871); experiment: cell-based or functional assay
# [13] = target: HIV-1 JR-CSF Env S387A (HIV-1 (isolate JR-CSF)) (UniProt P20871); experiment: cell-based or functional assay
# [14] = target: HIV-1 JR-CSF Env P313A (HIV-1 JR-CSF) (UniProt P20871); experiment: cell-based or functional assay
# [15] = target: HIV-1 JR-CSF Env N339A (HIV-1 isolate JR-CSF) (UniProt P20871); experiment: cell-based or functional assay
# [16] = target: Env of the clade D HIV-1 pseudoviruses of the cross-clade 162-pseudovirus panel (n = 25); experiment: cell-based or functional assay
# [17] = target: HIV-1 JR-CSF Env D417A (HIV-1 (isolate JR-CSF)) (UniProt P20871); experiment: cell-based or functional assay
# [18] = target: HIV-1 JR-CSF Env S334A (HIV-1 isolate JR-CSF) (UniProt P20871); experiment: cell-based or functional assay
# [19] = target: HIV-1 JR-CSF Env N295A (HIV-1 JR-CSF) (UniProt P20871); experiment: cell-based or functional assay
# [20] = target: HIV-1 JR-CSF Env R327A (HIV-1 isolate JR-CSF) (UniProt P20871); experiment: cell-based or functional assay
# [21] = target: Env of the clade A HIV-1 pseudoviruses of the cross-clade 162-pseudovirus panel (n = 26); experiment: cell-based or functional assay
# [22] = target: HIV-1 JR-CSF Env N386A (HIV-1 isolate JR-CSF) (UniProt P20871); experiment: cell-based or functional assay
# [23] = target: HIV-1 JR-CSF Env Q337A (HIV-1 isolate JR-CSF) (UniProt P20871); experiment: cell-based or functional assay
# [24] = target: HIV-1 JR-CSF Env I415A (HIV-1 (isolate JR-CSF)) (UniProt P20871); experiment: cell-based or functional assay
# [25] = target: HIV-1 JR-CSF Env K343A (HIV-1 isolate JR-CSF) (UniProt P20871); experiment: cell-based or functional assay
# [26] = target: HIV-1 JR-CSF Env R315A (HIV-1 isolate JR-CSF) (UniProt P20871); experiment: cell-based or functional assay
# [27] = target: HIV-1 JR-CSF Env N302A (HIV-1 JR-CSF) (UniProt P20871); experiment: cell-based or functional assay
# [28] = target: HIV-1 JR-CSF Env V292A (HIV-1 JR-CSF) (UniProt P20871); experiment: cell-based or functional assay
# [29] = target: HIV-1 JR-CSF Env P299A (HIV-1 JR-CSF) (UniProt P20871); experiment: cell-based or functional assay
# [30] = target: Env of the clade C HIV-1 pseudoviruses of the cross-clade 162-pseudovirus panel (n = 27); experiment: cell-based or functional assay
# [31] = target: HIV-1 JR-CSF Env N411A (HIV-1 (isolate JR-CSF)) (UniProt P20871); experiment: cell-based or functional assay
# [32] = target: HIV-1 JR-CSF Env R419A (HIV-1 (isolate JR-CSF)) (UniProt P20871); experiment: cell-based or functional assay
# [33] = target: HIV-1 JR-CSF Env N241A (HIV-1 JR-CSF) (UniProt P20871); experiment: cell-based or functional assay
# [34] = target: HIV-1 JR-CSF Env I309A (HIV-1 JR-CSF) (UniProt P20871); experiment: cell-based or functional assay
# [35] = target: HIV-1 JR-CSF Env I414A (HIV-1 (isolate JR-CSF)) (UniProt P20871); experiment: cell-based or functional assay
# [36] = target: HIV-1 JR-CSF Env T297A (HIV-1 JR-CSF) (UniProt P20871); experiment: cell-based or functional assay
# [37] = target: Env of the clade G HIV-1 pseudoviruses of the cross-clade 162-pseudovirus panel (n = 15); experiment: cell-based or functional assay
# [38] = target: HIV-1 JR-CSF Env K305A (HIV-1 JR-CSF) (UniProt P20871); experiment: cell-based or functional assay
Binder,EC50 [1],Fold IC50 increase relative to wild-type [2],Fold IC50 increase relative to wild-type [3],Fold IC50 increase relative to wild-type [4],Fold IC50 increase relative to wild-type [5],Fold IC50 increase relative to wild-type [6],Fold IC50 increase relative to wild-type [7],Fold IC50 increase relative to wild-type [8],Fold IC50 increase relative to wild-type [9],Fold IC50 increase relative to wild-type [10],Fold IC50 increase relative to wild-type [11],Fold IC50 increase relative to wild-type [12],Fold IC50 increase relative to wild-type [13],Fold IC50 increase relative to wild-type [14],Fold IC50 increase relative to wild-type [15],Median IC50 against viruses neutralized with an IC50 <50 µg/ml [16],Fold IC50 increase relative to wild-type [17],Fold IC50 increase relative to wild-type [18],Fold IC50 increase relative to wild-type [19],Fold IC50 increase relative to wild-type [20],also measured
B1,0.4 µg/mL,0.8 fold,> 170 fold,0.5 fold,2.7 fold,1.8 fold,4.8 fold,1.3 fold,0.9 fold,> 170 fold,0.6 fold,96 fold,1.1 fold,0.52 fold,1 fold,0.85 µg/mL,1 fold,0.4 fold,2.1 fold,19 fold,Median IC50 against viruses neutralized with an IC50 <50 µg/ml [21]: 0.09 µg/mL; Fold IC50 increase relative to wild-type [22]: 1.1 fold; Fold IC50 increase relative to wild-type [23]: 1.3 fold; Fold IC50 increase relative to wild-type [24]: 0.6 fold; Fold IC50 increase relative to wild-type [25]: 1.1 fold; Fold IC50 increase relative to wild-type [26]: 0.7 fold; Fold IC50 increase relative to wild-type [27]: 1 fold; Fold IC50 increase relative to wild-type [28]: 1.4 fold; Fold IC50 increase relative to wild-type [29]: 2 fold; Median IC50 against viruses neutralized with an IC50 <50 µg/ml [30]: 0.78 µg/mL; Fold IC50 increase relative to wild-type [31]: 0.6 fold; Fold IC50 increase relative to wild-type [32]: 1.7 fold; Fold IC50 increase relative to wild-type [33]: 0.7 fold; Fold IC50 increase relative to wild-type [34]: 8.8 fold; Fold IC50 increase relative to wild-type [35]: 1 fold; Fold IC50 increase relative to wild-type [36]: 1.2 fold; Median IC50 against viruses neutralized with an IC50 <50 µg/ml [37]: 3.54 µg/mL
B2,0.2 µg/mL,1 fold,> 250 fold,0.6 fold,1.2 fold,1.7 fold,3.9 fold,0.8 fold,1.2 fold,> 1000 fold,1 fold,17 fold,0.7 fold,0.3 fold,0.2 fold,0.65 µg/mL,1 fold,0.5 fold,0.7 fold,2.4 fold,Median IC50 against viruses neutralized with an IC50 <50 µg/ml [21]: 0.09 µg/mL; Fold IC50 increase relative to wild-type [22]: 0.1 fold; Fold IC50 increase relative to wild-type [23]: 1 fold; Fold IC50 increase relative to wild-type [24]: 0.6 fold; Fold IC50 increase relative to wild-type [25]: 1.1 fold; Fold IC50 increase relative to wild-type [26]: 0.6 fold; Fold IC50 increase relative to wild-type [27]: 1.1 fold; Fold IC50 increase relative to wild-type [38]: 6.9 fold; Fold IC50 increase relative to wild-type [28]: 0.9 fold; Fold IC50 increase relative to wild-type [29]: 0.8 fold; Median IC50 against viruses neutralized with an IC50 <50 µg/ml [30]: 0.15 µg/mL; Fold IC50 increase relative to wild-type [31]: 0.6 fold; Fold IC50 increase relative to wild-type [32]: 2.6 fold; Fold IC50 increase relative to wild-type [33]: 0.6 fold; Fold IC50 increase relative to wild-type [34]: > 77.9 fold; Fold IC50 increase relative to wild-type [35]: 0.7 fold; Fold IC50 increase relative to wild-type [36]: 0.9 fold; Median IC50 against viruses neutralized with an IC50 <50 µg/ml [37]: 4.14 µg/mL
